From patent US20150368353A1

Target: podoplanin on human brain tumor cells (glioblastoma and medulloblastoma cells and xenografts) (human) (UniProt Q86YL7)
Assay: cell-based or functional assay

dsNZ-1-PE38KDEL immunotoxin (scFv)
IC50 of cytotoxicity (inhibition of protein synthesis, 3H-leucine incorporation): 0.5 to 6.9 ng/mL
